Reference: paper PMC7398979

Assays:
[1] = target: sulfur oxygenase reductase from Sulfurisphaera tokodaii (Sulfurisphaera tokodaii strain 7); experiment: crystal structure; sitting drop at 20 °C, 1.2 M ammonium sulfate, 100 mM MES-NaOH pH 6.1, 4% dioxane; space group I23, 8 monomers per asymmetric unit; 1.73 Å
[2] = target: sulfur oxygenase reductase from Sulfurisphaera tokodaii (Sulfurisphaera tokodaii strain 7); experiment: SEC; gel filtration on HiLoad 16/600 Superdex 200 pg; standards thyroglobulin (669 k), pyruvate kinase (237 k), ovalbumin (44 k), RNaseA (14 k); peak at 539 kDa
[3] = target: sulfur oxygenase reductase from Sulfurisphaera tokodaii (Sulfurisphaera tokodaii strain 7); experiment: cryo-EM structure; single particle analysis, 10 mg/mL in 20 mM Tris-HCl pH 8.0, 150 mM NaCl; sample partially purified (heat treatment, gel filtration); 200 kV Talos Arctica; octahedral symmetry imposed, 2.24 Å (C1: 2.73 Å)

- stoichiometry N [1]: 24
- stoichiometry N [2]: 15 to 16
- stoichiometry N [3]: 24
Substance: sulfur oxygenase reductase from Sulfurisphaera tokodaii (enzyme)
